Experimental data from IntAct's records for PubMed 36373674.

B1: SMC5-SMC6 complex localization factor protein 1 (Homo sapiens), Q9BQI6 (parent)
chain: MEDGTPKHIIQMTGFKMEEKEALVKLLLKLDCTFIKSEKYKNCTHLIAERLCKSEKFLAACAAGKWILTKDYIIHSAKSGRWLDETTYEWGYKIEKDSRYSPQMQSAPKRWREELKRTGAPGAFHRWKVVLLVRTDKRSDSLIRVLEAGKANVILPKSSPSGITHVIASNARIKAEKEKDNFKAPFYPIQYLGDFLLEKEIQNDEDSQTNSVWTEHSNEETNKDFRKDAGFLEMKGALRETMYRTQKEMQNHEDVNVGSILIQHHKKEKFSGSSKDLKFVKMRNTFGSHTYENQKEIKKKDEDIQRSYTLRRKRKKGKESNCKKGVEHEKIKSTLRRHIYNRDQKEMKNSIFAEYAKESKAMAIKTDVDVVEIKNTLRKHIYRAQAVRYNCIRIDKQPVYNVEVKNAEFPRGVLNLIESLIEGHFFKEAIEELSTLQAHYIPPVCVLHALLENVLQDNIDTFSGRYFHILSALLHLHPPWKSPAMSRYYLELFQCPTCMKGAWSLVEVLIRSCLFNESFCHQISENIGSKVLHLTLLKFFFNLIESEVQHLSQKLYDWSDSQNLKITGKAMLLEIFWSGSETSGLLTKPVNMLLEWTIYSHKEKFKSNDVFKHELAYLLAGILGAAIDYWIFLGLKMGRNVMRHMSDDLGSYVSLSCDDFSSQELEIFICSFSSSWLQMFVAEAVFKKLCLQSSGSVSSEPLSLQKMVYSYLPALGKTGVLGSGKIQVSKKIGQRPCFDSQRTLLMLNGTKQKQVEGLPELLDLNLAKCSSSLKKLKKKSEGELSCSKENCPSVVKKMNFHKTNLKGETALHRACINNQVEKLILLLSLPGIDINVKDNAGWTPLHEACNYGNTVCVQEILQRCPEVDLLTQVDGVTPLHDALSNGHVEIGKLLLQHGGPVLLQQRNAKGELPLDYVVSPQIKEELFAITKIEDTVENFHAQAEKHFHYQQLEFGSFLLSRMLLNFCSIFDLSSEFILASKGLTHLNELLMACKSHKETTSVHTDWLLDLYAGNIKTLQKLPHILKELPENLKVCPGVHTEALMITLEMMCRSVMEFS
partner: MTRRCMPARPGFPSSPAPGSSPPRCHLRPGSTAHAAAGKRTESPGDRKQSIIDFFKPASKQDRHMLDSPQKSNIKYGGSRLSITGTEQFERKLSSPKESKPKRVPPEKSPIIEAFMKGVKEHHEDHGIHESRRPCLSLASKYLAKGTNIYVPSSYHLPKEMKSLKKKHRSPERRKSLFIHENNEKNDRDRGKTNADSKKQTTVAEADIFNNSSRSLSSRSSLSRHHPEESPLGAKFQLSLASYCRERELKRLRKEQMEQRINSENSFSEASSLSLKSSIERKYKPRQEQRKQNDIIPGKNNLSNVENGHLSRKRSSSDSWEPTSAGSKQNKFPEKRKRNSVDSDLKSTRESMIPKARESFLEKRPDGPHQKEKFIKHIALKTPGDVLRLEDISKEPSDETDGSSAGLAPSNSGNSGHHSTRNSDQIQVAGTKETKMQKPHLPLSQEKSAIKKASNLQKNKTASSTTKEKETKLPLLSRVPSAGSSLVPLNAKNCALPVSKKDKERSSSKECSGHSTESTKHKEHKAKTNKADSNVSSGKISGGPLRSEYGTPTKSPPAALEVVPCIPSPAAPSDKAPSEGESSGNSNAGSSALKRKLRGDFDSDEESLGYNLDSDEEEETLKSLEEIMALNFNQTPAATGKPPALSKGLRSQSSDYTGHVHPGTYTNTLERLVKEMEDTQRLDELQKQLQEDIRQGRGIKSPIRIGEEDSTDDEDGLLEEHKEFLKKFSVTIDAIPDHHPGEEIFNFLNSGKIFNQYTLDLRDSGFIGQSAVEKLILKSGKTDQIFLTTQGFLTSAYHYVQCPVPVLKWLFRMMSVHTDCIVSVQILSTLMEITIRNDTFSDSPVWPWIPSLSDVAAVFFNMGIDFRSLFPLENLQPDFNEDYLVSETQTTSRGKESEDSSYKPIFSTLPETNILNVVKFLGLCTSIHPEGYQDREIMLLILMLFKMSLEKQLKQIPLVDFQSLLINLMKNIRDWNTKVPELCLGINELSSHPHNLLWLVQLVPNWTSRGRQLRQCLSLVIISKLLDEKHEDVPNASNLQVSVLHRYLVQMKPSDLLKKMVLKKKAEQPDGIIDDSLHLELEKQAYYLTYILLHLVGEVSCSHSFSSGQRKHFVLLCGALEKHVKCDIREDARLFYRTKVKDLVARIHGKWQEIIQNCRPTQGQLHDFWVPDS
B2: SMC5-SMC6 complex localization factor protein 2 (Homo sapiens), Q8IX21 (parent)
chain: B1 partner
partner: B1 chain

Variants of: B1
Conditions: with slf2_human SLF2, Q8IX21

Row | effect of a mutation on the interaction | Variant
1 | disrupting interaction strength | G464D;H468E;A472D;L476E
2 | disrupting interaction strength | F957E;L964E
3 | disrupting interaction strength | A1042D;I1045E;M1049E

Variants of: B2
Conditions: with slf1_human SLF1, Q9BQI6

Row | effect of a mutation on the interaction | Variant
4 | with no effect | C820W;I821W
5 | disrupting interaction strength | M831R;I835R
6 | disrupting interaction strength | L775E;F786E;F792E
7 | disrupting interaction strength | P957D;V959D;W1006A
